Laboratory results published in patent publication JP2006342173A (dated 2006).

Target: T1, ヒトCD40 (human CD40 expressed on cells) (human, UniProt P25942 21-277)
T1 construct: whole, on cells; also called Ramos細胞上のCD40; DC上のCD40
Test: screening by ELISA (human CD40 mouse FC) and FACS (Ramos cells)

T1 sequence (P25942 21-277): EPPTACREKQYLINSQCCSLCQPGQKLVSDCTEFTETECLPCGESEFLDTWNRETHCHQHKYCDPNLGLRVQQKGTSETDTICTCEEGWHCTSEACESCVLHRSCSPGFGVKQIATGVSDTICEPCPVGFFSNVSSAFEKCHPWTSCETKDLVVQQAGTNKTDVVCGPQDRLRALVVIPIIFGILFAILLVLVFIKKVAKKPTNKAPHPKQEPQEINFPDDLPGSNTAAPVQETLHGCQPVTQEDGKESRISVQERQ

Row | binding result | Binder
1 | binds | 2105抗体 (antibody, V domains shown, Human agonistic anti-CD40 antibody, FERM BP-8024) VH: EVQLVESGGGLVQPGRSLRLSCAASGFTFDDYAMHWVRQAPGKGLEWVSGISWNSGSLVHADSVKGRFTISRDNAKNSLYLQMNSLRAEDTALYYCARDRLFRGVRYYGMDVWGQGTTVTVSS VL: EIVLTQSPATLSLSPGERATLSCRASQSVSSYLAWYQQKPGQAPRLLIYDASNRATGIPARFSGSGSGTDFTLTISSLEPEDFAVYYCQQRSHWLTFGGGTKVEIK
2 | binds | KM281-1-10抗体 (antibody, V domains shown, Human antagonistic anti-CD40 antibody, FERM BP-7579; Signal peptides predicted by Signal P) VH: QVQLQESGPGLVKPSETLSLTCTVSGGSISGYYWSWIRQPPGKGLEWIGYIYYSGSTNYNPSLKSRVTISVDTSKNQFSLKLNSVTAADTAVYYCARAPLHGDYKWFHPWGQGTLVTVSS VL: not shown
3 | binds | 115抗体 (antibody, V domains shown, Human agonistic anti-CD40 antibody from hybridoma; Signal peptides predicted by Signal P) VH: QVQLVESGGGVVQPGRSLRLSCAASGFTFSSYGMHWVRQAPGKGLEWVAVIWNDGSIKYYADSVKGRFTISRDNSKNTLYLQMNSLRAEDTAVYYCAREGYNILTGYFGYWGQGTLVTVSS VL: VIWMTQSPSLLSASTGDRVTISCRMSQGISSDLAWYQQKPGKAPELLISAASTLQSGVPSRFSGSGSGTDFTLTISCLQSEDFATYYCQQYYSFPWTFGQGTKVEIK
4 | binds | KM643-4-11抗体 (antibody, V domains shown, Human agonistic anti-CD40 antibody from hybridoma; Signal peptides predicted by Signal P) VH: QVQLQQSGPGLVKPSQTLSFTCAISGDSVSSNSAAWNWIRQSPSRGLEWLGRTYYRSKWYKDYAVSVKSRITINPDTSKNQFSLQLNSVTPEDTAVYYCARGYYYGSGSYPYYYQMDVWGQGTTVTVSS VL: EIVLTQSPATLSLSPGESATLSCRASQSVSSYLAWYQQKPGQAPRLLIYDASNRATGIPARFSGSGSGTDFTLTISSLEPEDFAVYYCQQRSNTFGGGTKVEIK

The next lines start with the binder.

Row | Binder | binding result
5 | F5-77抗体 (antibody, V domains shown, Human agonistic anti-CD40 antibody from hybridoma; plasmids ATCC PTA-3304 and PTA-3305; Signal peptides predicted by Signal P) VH: not shown VL: DIQMTQSPSSVSGSVGDRVTITCRASQGISSWLAWYQQKPGKAPKLLIYAGSSLQSGVPSRFSGSGFGTDFTLTISSLQPEDFATYYCQQASSFPRTFGQGTKVEIK | binds
6 | 4D11抗体 (antibody, V domains shown, Human antagonistic anti-CD40 antibody, FERM BP-7758; Signal peptides predicted by Signal P) VH: QLQLQESGPGLLKPSETLSLTCTVSGGSISSPGYYGGWIRQPPGKGLEWIGSIYKSGSTYHNPSLKSRVTISVDTSKNQFSLKLSSVTAADTAVYYCTRPVVRYFGWFDPWGQGTLVTVSS VL: AIQLTQSPSSLSASVGDRVTITCRASQGISSALAWYQQKPGKAPKLLIYDASNLESGVPSRFSGSGSGTDFTLTISSLQPEDFATYYCQQFNSYPTFGQGTKVEIK | binds
7 | F2-103抗体 (antibody, V domains shown, Human agonistic anti-CD40 antibody from hybridoma; plasmids ATCC PTA-3302 and PTA-3303; Signal peptides predicted by Signal P) VH: EVQLVESGGGLVQPGGSLRLSCAVSGFTFSTYWMHWVRQAPGKGLVWVSRINSDGSSTTYADSVKGRFTISRDNAKNTLYLQMNSLRAEDTAVYYCARDRVLWIGELSYYGMDVWGQGTTVTVSS VL: DIQMTQSPSTLSASVGDRVTITCRASQSISNWLAWYQQKPGKAPKLLLYKASGLESGVPSRFSGSGSGTEFTLTINSLQPDDFATYYCQQSNSYSWTFGHGTKVEIK | binds
8 | 110抗体 (antibody, V domains shown, Human agonistic anti-CD40 antibody from hybridoma; Signal peptides predicted by Signal P) VH: QVQLVESGGGVVQPGRSLRLSCAASGFTFSSYGMHWVRQAPGKGLEWVAVIWYDGSIKYYADSVKGRFTISRDNSKNTLYLQMNSLRAEDTAVYYCAREGYNILTGYFGYWGQGTLVTVSS VL: VIWMTQSPSLLSASTGDRVTISCRMSQGISSDLAWYQQKPGKAPELLISAASTLQSGVPSRFSGSGSGTDFTLTISCLQSEDFATYYCQQYYSFPWTFGQGTKVEIK | binds
